# Patent publication US20240116985A1 (published 2024)
# Starred links: 1 amine or outer side, 2 acyl side, 3 side chain; linkers in the order of their positions; H or OH if unused. Positions of bridges follow the written chain, without caps; N, C: chain ends. Non-standard residues stand in square brackets, D forms with d. Primed or numbered codes have the meaning given here. *: point of attachment. PyrS2″ = (S)-3-amino-1-((pent-4-en-1-yloxy)carbonyl)pyrrolidine-3-carboxylic acid (stapling residue), C=CCCCOC(=O)N1CC[C@@](N[*:1])(C(=O)[*:2])C1; B5(16) = 2-amino-2-(pent-4-en-1-yl)hept-6-enoic acid = 2,2-bis(4-pentenyl)glycine (stitching residue), C=CCCCC(CCCC=C)(N[*:1])C(=O)[*:2]; B5(4) = 2,2-bis(4-pentenyl)glycine = 2-amino-2-(pent-4-en-1-yl)hept-6-enoic acid (stitching residue), C=CCCCC(CCCC=C)(N[*:1])C(=O)[*:2]; B5(5) = 2,2-bis(4-pentenyl)glycine, 2-amino-2-(pent-4-en-1-yl)hept-6-enoic acid (stitching residue), C=CCCCC(CCCC=C)(N[*:1])C(=O)[*:2]; TfeGA = (S)-2-amino-3-((carboxymethyl)(2,2,2-trifluoroethyl)amino)propanoic acid, O=C([C@H](CN(CC(=O)[*:3])CC(F)(F)F)N[*:1])[*:2]; PyrS = (S)-1-((allyloxy)carbonyl)-3-aminopyrrolidine-3-carboxylic acid, C=CCOC(=O)N1CC[C@@](N[*:1])(C(=O)[*:2])C1; B5(3) = 2,2-bis(4-pentenyl)glycine (stitching residue), C=CCCCC(CCCC=C)(N[*:1])C(=O)[*:2]; AcLys″ = N6-acetyl-lysine, CC(=O)NCCCC[C@H](N[*:1])C(=O)[*:2]; Phe(3-COOH) = N[C@@H](Cc1cccc(C(=O)O)c1)C(=O)O; 2F3MeF = Cc1cccc(C[C@H](N[*:1])C(=O)[*:2])c1F; Phe(2-Cl) = N[C@@H](Cc1ccccc1Cl)C(=O)O; Phe(4-F) = N[C@@H](Cc1ccc(F)cc1)C(=O)O; Bta = N[C@@H](Cc1csc2ccccc12)C(=O)O; Lys(iPr) = CC(C)NCCCC[C@H](N)C(=O)O; αAllylPro = C=CC[C@@]1(C(=O)O)CCCN1; tBuAla = CC(C)(C)C[C@H](N)C(=O)O; R8 = C=CCCCCCC[C@@](C)(N)C(=O)O; 3Thi = N[C@@H](Cc1ccsc1)C(=O)O; S8 = C=CCCCCCC[C@](C)(N)C(=O)O; PyrS2(4) = not defined here; Ms = CS(=O)(=O)*
# T1: full-length beta-Catenin (Uniprot ID P35222) (Homo sapiens (Human), UniProt P35222 1-781)
# T1 construct: also called bCat; B-Catenin
# T1 sequence: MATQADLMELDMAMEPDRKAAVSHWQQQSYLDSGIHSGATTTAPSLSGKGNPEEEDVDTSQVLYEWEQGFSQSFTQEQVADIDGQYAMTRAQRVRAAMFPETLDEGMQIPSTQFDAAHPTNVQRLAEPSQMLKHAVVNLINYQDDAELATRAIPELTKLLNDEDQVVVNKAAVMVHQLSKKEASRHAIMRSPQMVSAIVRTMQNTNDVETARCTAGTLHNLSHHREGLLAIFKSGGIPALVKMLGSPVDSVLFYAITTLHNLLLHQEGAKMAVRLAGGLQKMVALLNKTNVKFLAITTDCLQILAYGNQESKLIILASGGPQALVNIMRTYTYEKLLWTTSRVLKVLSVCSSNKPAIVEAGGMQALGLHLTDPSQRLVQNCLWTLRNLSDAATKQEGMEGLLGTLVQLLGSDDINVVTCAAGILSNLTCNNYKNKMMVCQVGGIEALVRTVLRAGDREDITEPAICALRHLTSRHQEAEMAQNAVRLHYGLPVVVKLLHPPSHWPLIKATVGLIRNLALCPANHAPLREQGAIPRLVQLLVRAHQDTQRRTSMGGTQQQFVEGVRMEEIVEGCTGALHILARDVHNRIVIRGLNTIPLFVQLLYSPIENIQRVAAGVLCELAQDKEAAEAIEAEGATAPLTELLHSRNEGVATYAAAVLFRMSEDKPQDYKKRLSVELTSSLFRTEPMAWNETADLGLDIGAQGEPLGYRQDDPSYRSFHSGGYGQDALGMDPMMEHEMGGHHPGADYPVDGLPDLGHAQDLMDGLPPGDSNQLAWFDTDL
# T2: beta-catenin in DLD1 TCF/LEF luciferase reporter cells (UniProt P35222 1-781)
# T2 sequence (looked up): T1 sequence
# T3: B-cat-Halo (UniProt P35222 1-781)
# T3 sequence (looked up): T1 sequence
# T4: Bcat-Halo (beta-catenin HaloTag construct transfected into HEK293 cells) (UniProt P35222 1-781)
# T4 sequence (looked up): T1 sequence
# T5: beta-catenin in DLD1 TCF/LEF luciferase reporter cells (UniProt P35222 1-781)
# T5 sequence (looked up): T1 sequence
# T6: Bcat-Halo (UniProt P35222 1-781, HaloTag NanoBRET 618 Ligand bound to the Halo part)
# T6 construct: Expressed in transfected HEK293 cells (NanoBRET acceptor construct); also called beta-catenin HaloTag fusion; not shown: HaloTag
# T6 sequence (looked up): T1 sequence
# T7: full-length beta-Catenin (Uniprot ID P35222) (Homo sapiens (Human), UniProt P35222 2-781)
# T7 construct: Used at 10 nM in the FP probe solution as 'full-length'; Also used here for the endogenous beta-catenin of the DLD1 TCF/LEF reporter cells (functional rows); also called bCat; B-Catenin
# T7 sequence: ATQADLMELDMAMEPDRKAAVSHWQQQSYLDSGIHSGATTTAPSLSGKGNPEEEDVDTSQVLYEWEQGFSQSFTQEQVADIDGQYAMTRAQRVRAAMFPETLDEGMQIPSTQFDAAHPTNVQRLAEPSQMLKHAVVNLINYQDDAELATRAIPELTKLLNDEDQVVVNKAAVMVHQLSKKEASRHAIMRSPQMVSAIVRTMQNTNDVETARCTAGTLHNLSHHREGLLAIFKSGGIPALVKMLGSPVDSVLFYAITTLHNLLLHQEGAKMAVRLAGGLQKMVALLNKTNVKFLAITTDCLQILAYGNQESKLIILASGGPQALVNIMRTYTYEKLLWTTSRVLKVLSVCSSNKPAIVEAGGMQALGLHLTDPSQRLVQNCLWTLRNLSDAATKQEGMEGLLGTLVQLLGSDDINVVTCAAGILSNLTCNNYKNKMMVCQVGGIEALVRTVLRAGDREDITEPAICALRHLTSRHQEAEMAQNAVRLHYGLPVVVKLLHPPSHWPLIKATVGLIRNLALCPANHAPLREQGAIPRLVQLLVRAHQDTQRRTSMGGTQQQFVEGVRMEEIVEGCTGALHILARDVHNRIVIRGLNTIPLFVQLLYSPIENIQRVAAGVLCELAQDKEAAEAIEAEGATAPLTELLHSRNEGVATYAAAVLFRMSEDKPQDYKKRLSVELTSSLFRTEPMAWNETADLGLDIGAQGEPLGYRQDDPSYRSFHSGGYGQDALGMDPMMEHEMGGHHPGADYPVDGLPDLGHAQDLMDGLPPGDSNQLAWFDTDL
# T8: B-cat-Halo (UniProt P35222 1-781)
# T8 sequence (looked up): T1 sequence
# T9: beta-catenin in DLD1 TCF/LEF luciferase reporter cells (UniProt P35222 2-781)
# T9 sequence (looked up): T7 sequence
# T10: B-cat-Halo (Homo sapiens (Human), UniProt P35222 1-781)
# T10 sequence: T1 sequence
# T11: beta-catenin in DLD1 TCF/LEF luciferase reporter cells (Homo sapiens (Human), UniProt P35222 1-781)
# T11 sequence: T1 sequence
# T12: full-length beta-Catenin (Uniprot ID P35222) (Homo sapiens (Human), UniProt P35222 2-781)
# T12 construct: also called bCat; B-Catenin
# T12 sequence: T7 sequence
# B1: I-711 (peptide)
# peptide: Ms-[αAllylPro]DI[B5(5)]DEAAFQ[S8]F[Bta]Q-NH2
# modifications: staple 1-4, 4-11
# notes: separate staple-isomer composition (later eluting HPLC peak); also called MeSO2-PL3-Asp-Ile-B5-Asp-Glu-Ala-Ala-Phe-Gln-S8-Phe-BztA-Gln-NH2
# B2: I-1616 (peptide)
# peptide: Ac-[αAllylPro]D[tBuAla][B5(3)]D[Phe(3-COOH)]AAFL[PyrS2(4)][2F3MeF][Bta][Lys(iPr)]-NH2
# modifications: staple 1-4, 4-11; not fully specified; printed as Ac-PL3-Asp-Npg-B5-Asp-3COOHF-Ala-Ala-Phe-Leu-PyrS2-2F3MeF-BztA-iPrLys-NH2; reading uncertain
# Key:
# [1] = molecular target: T1, full-length beta-Catenin (Uniprot ID …); assay: fluorescence polarization competition; peptide titrated against full-length beta-catenin + 5FAM-TCF4(10-53)
# Experimental: (§1) The plate was incubated protected from light for 60 minutes at 20° C. prior to read. Reads were performed on a CLARIOstar plate reader (BMG Labtech) in duplicate, and data were fitted to a 1:1 binding model with hill slope using an in-house script. All provided concentrations are final concentrations.
# [2] = molecular target: T2, beta-catenin in DLD1 TCF/LEF luciferase …; assay: cell-based or functional assay
# B-cat-Halo [3] = molecular target: T3, B-cat-Halo; assay: cell-based or functional assay
# [4] = molecular target: T4, Bcat-Halo (beta-catenin HaloTag …); assay: cell-based or functional assay
# [5] = molecular target: T5, beta-catenin in DLD1 TCF/LEF luciferase …; assay: cell-based or functional assay; remark: listed apart in the source
# Bcat-Halo = molecular target: T6, Bcat-Halo; assay: NanoBRET Abs IC50, HEK293 cells transfected with Bcat-Halo and TCF4-Luc (competitor: TCF4-Luc); cellular assay
# [6] = molecular target: T7, full-length beta-Catenin (Uniprot ID …); assay: fluorescence polarization competition; 10 nM full-length beta-catenin + 10 nM 5FAM-TCF4 10-53 as competitor probe
# Experimental: as §1
# B-cat-Halo [7] = molecular target: T8, B-cat-Halo; assay: cell-based or functional assay; remark: listed apart in the source
# [8] = molecular target: T9, beta-catenin in DLD1 TCF/LEF luciferase …; assay: cell-based or functional assay
# B-cat-Halo [9] = molecular target: T10, B-cat-Halo; assay: cell-based or functional assay
# [10] = molecular target: T11, beta-catenin in DLD1 TCF/LEF luciferase …; assay: cell-based or functional assay
# [11] = molecular target: T12, full-length beta-Catenin (Uniprot ID …); assay: fluorescence polarization competition; peptide titrated against 10 nM full-length beta-catenin with 10 nM 5FAM-TCF4(10-53) probe
# Experimental: as §1
binder,measurement,setting,value
B1,IC50,[1],88 nM
"Ac-[αAllylPro]D[tBuAla][B5(4)]D[TfeGA]AAFL[PyrS2″][3Thi][Bta][AcLys″]-NH2 (staple 1-4, 4-11) [I-1709]",DLD1 4% Abs IC50,[2],3.9 µM
same,NanoBRET Abs IC50,B-cat-Halo [3],6.2 µM
"Ac-[αAllylPro]D[tBuAla][B5(4)]D[Phe(3-COOH)]AAFL[PyrS2″][3Thi][Bta]Q-NH2 (staple 1-4, 4-11) [I-1462]",NanoBRET Abs IC50,[4],2.3 µM
same,DLD1 4% Abs IC50,[5],2.7 µM
"Ac-[αAllylPro]DF[B5(16)]DDAAFN[PyrS2″][Phe(2-Cl)][Bta]Q-NH2 (staple 1-4, 4-11, Stapled (stitched) peptide composition) [I-1041]",IC50,Bcat-Halo,> 20 µM
same,EC50,[6],8 nM
"Ac-[αAllylPro]DF[B5(16)]DDAAFS[PyrS2″][Phe(2-Cl)][Bta]Q-NH2 (staple 1-4, 4-11, Stapled (stitched) peptide composition) [I-1045]",IC50,Bcat-Halo,23.9 µM
same,EC50,[6],5 nM
"Ac-[αAllylPro]DF[B5(4)]DDAAFN[PyrS2″][Phe(2-Cl)][Bta]S-NH2 (staple 1-4, 4-11, Stapled (stitched) peptide composition) [I-1047]",IC50,Bcat-Halo,28.4 µM
same,EC50,[6],5 nM
"Ac-[αAllylPro]D[tBuAla][B5(3)]D[(Tfb)GA]AAFL[PyrS2″][3Thi][Bta]Q-NH2 (staple 1-4, 4-11) [I-1629]",NanoBRET Abs IC50,B-cat-Halo [7],4.3 µM
same,DLD1 4% Abs IC50,[8],2.7 µM
B2,NanoBRET Abs IC50,B-cat-Halo [7],4.5 µM
same,DLD1 4% Abs IC50,[8],2.8 µM
"Ac-[αAllylPro]D[tBuAla][B5(3)]D[Phe(3-COOH)]AAFL[PyrS2″][3Thi][Bta]N-NH2 (staple 1-4, 4-11) [I-2043]",NanoBRET Abs IC50,B-cat-Halo [9],2.8 µM
same,DLD1 4% Abs IC50,[10],1 µM
Ac-FDA[R8]DDAA[Phe(4-F)]V[PyrS]FWQ-NH2 (staple 4-11) [I-78: Ac-Phe-Asp-Ala-R8-Asp-Asp-Ala-Ala-4FF-Val-PyrS-Phe-Trp-Gln-NH2 (stapled peptide)],IC50,[11],5 µM
"Ac-[αAllylPro]D[tBuAla][B5(3)]D[Phe(3-COOH)]AAFL[PyrS2″][Phe(2-Cl)][Bta]NAA[dA]-NH2 (staple 1-4, 4-11) [I-2041]",DLD1 4% Abs IC50,[10],1.9 µM
